Laboratory results reported in US12606638B2, “Dosing regimens for use with PCSK9 inhibitors” (Sanofi Biotechnology, priority 2013, dated 2026).
Several values for one entry are separate records, joined by “and”; a condition that tells them apart may be missing. Identical values can stand only once. Like-named read-outs stand apart in the source and are kept apart here.

Key:
free PCSK9 = test: Phase 1 study: circulating levels of free PCSK9; format: in vivo, human; details: for Free PCSK9 level at end of run-in period: prior to alirocumab treatment, from 152 (FENO) and 151 (EZE) at start of run-in
Description: (§1) The primary objective of the study was to assess the pharmacodynamic profile of alirocumab administered either alone or on top of ezetimibe or fenofibrate, based on low density lipoprotein cholesterol (LDL-C).

healthy subjects [1] = test: Phase 1 study in healthy subjects: pharmacodynamic profile (serum lipid parameters) of alirocumab alone or on top of ezetimibe or fenofibrate; format: in vivo, human; details: for Percent change in LDL-C during the run-in period (Day −29 to Day −1): ezetimibe 10 mg/day or fenofibrate 160 mg/day alone, before alirocumab, value on Day −1, mean (SEM); for Mean percent change in LDL-C from Day −1 baseline to Day 71: additional baseline Day −1 (start of alirocumab injection); for Mean percent change in LDL-C from Day −29 baseline to Day 71: main baseline Day −29 (start of placebo/EZE/FENO run-in), Day 71 = 14 days after 3rd alirocumab dose, 150 mg SC Q4W, N=24
Procedure: as §1
The study evaluated 72 healthy subjects.
Alirocumab was administered subcutaneously in the abdomen.
Ezetimibe was formulated as a 10 mg over-encasulated tablet (and matching placebo ezetimibe capsule). Ezetimibe was administered orally.
Fenofibrate was formulated at a 160 mg coated tablet. Fenofibrate was administered orally during a meal.
The duration of treatment was as follows.
The pharmacodynamic criteria were as follows. The primary endpoint was percent change in calculated serum LDL-C from baseline (D-29). The secondary endpoints were absolute change from baseline in calculated LDL-C, total cholesterol (TC), high density lipoprotein cholesterol (HDL-C), non-HDL-C, triglycerides (TG), apolipoprotein B (ApoB), apolipoprotein A1 (ApoA1), and lipoprotein a (Lp[a]) analyzed in percent and absolute change from baseline.
The blood sampling for lipid parameters (ie, LDL-C, TC, HDL-C, non-HDL-C, TG, ApoB, ApoA1, Lp[a]) were performed in the morning, in the fasted condition (at least 10-hours fasted and refrained from smoking), before any drug intake.
Blood samples were collected at screening; Day −1 of the run-in phase; and Days 8, 15, 22, 29±1, 57±1, 64±1, 71±1, 78±1, 85±1, 99±2, and 120±3 of the treatment phase.

[2] = system: patients with genotype-confirmed hoFH; details: ezetimibe 10 mg/day added to maximal dose of statins; cited from earlier work
healthy subjects [3] = test: Phase 1 study: safety (adverse events, laboratory, vital signs, ECG); details: for Patients with any TEAEs, %: N = 24 per group
[4] = in vivo
[5] = in vivo; remark: listed apart in the source
Procedure: Samples for the determination of anti-drug antibody (ADA) levels in serum were collected at Day −28 of the run-in phase; Days 29, 57, 85, and 120 of the treatment phase; and the EOS visit.
In neat serum samples, the validated lower limit of detection was approximately 1.5 ng/mL.

[6] = additional baseline Day −1, 14 days after 3rd alirocumab dose
[7] = listed as Alirocumab 150 mg Q4W + placebo
[8] = main baseline Day −29, 14 days after 3rd alirocumab dose
[9] = median, additional baseline Day −1, 14 days after 3rd alirocumab dose
[10] = median, main baseline Day −29, 14 days after 3rd alirocumab dose

In the case of `O=C1[C@H](CC[C@H](O)c2ccc(F)cc2)[C@@H](c2ccc(O)cc2)N1c1ccc(F)cc1` [ezetimibe], the “Free PCSK9 level at end of run-in period” value (free PCSK9) is listed as 142 ng/mL, the “Percent change in LDL-C during the run-in period (Day −29 to Day −1)” value (healthy subjects [1]) is listed as −19.8 (2.1) % and the “Total reduction of LDL-C levels” value [2] is listed as 27%.

In the case of `CC(C)OC(=O)C(C)(C)Oc1ccc(C(=O)c2ccc(Cl)cc2)cc1` [fenofibrate, reference compound], the “Free PCSK9 level at end of run-in period” value (free PCSK9) is reported as 217 ng/mL and the “Percent change in LDL-C during the run-in period (Day −29 to Day −1)” value (healthy subjects [1]) is reported as −25.9 (3.2) %.

In the case of alirocumab, the “Effect on free PCSK9 after alirocumab injection” value (free PCSK9; after the 1st and 3rd alirocumab injections) is reported as “complete suppression”, the “Percent change in LDL-C from Day −1 baseline to Day 85” value (healthy subjects [1]; 28 days after the 3rd administration of alirocumab) is reported as −47.03% and the “Mean percent change in LDL-C from Day −1 baseline to Day 71” value (healthy subjects [1]; 14 days after 3rd alirocumab dose, listed as Alirocumab 150 mg Q4W + placebo) is reported as −47.4%. For the same molecule, the “Mean percent change in LDL-C from Day −1 baseline to Day 71” value (healthy subjects [1]; 14 days after 3rd alirocumab dose, listed as alirocumab alone) was −47.39% and −47.4 (3.2) %, the “Mean percent change in Apolipoprotein B from Day −1 baseline to Day 71” value (healthy subjects [1]; [6]) was −38.4% and the “Mean percent change in HDL-C from Day −1 baseline to Day 71” value (healthy subjects [1]; [6]) was 3.6%. For the same molecule, the “Mean percent change in Non-HDL-C from Day −1 baseline to Day 71” value (healthy subjects [1]; [6]) was −43.0%, the “Mean percent change in Total cholesterol from Day −1 baseline to Day 71” value (healthy subjects [1]; [6]) was −31.5% and the “LDL-C reductions, sustained over the 28-day dosing interval” value (healthy subjects [1]; alirocumab 150 mg Q4W monotherapy, regardless of baseline) was ~48%. The “Mean percent change in LDL-C from Day −29 baseline to Day 71” value (healthy subjects [1]; [7]) was −48.2%, the “Mean percent change in LDL-C from Day −29 baseline to Day 71” value (healthy subjects [1]; listed as alirocumab alone) was −47.59% and −48.2 (2.3) % and the “Mean percent change in Apolipoprotein B from Day −29 baseline to Day 71” value (healthy subjects [1]; [8]) was −39.1%. The “Mean percent change in HDL-C from Day −29 baseline to Day 71” value (healthy subjects [1]; [8]) was 3.3%, the “Mean percent change in Non-HDL-C from Day −29 baseline to Day 71” value (healthy subjects [1]; [8]) was −43.0% and the “Mean percent change in Total cholesterol from Day −29 baseline to Day 71” value (healthy subjects [1]; [8]) was −31.6%. The “Median percent change in Lipoprotein (a) from Day −1 baseline to Day 71” value (healthy subjects [1]; [9]) was −11.7%, the “Median percent change in Triglycerides from Day −1 baseline to Day 71” value (healthy subjects [1]; [9]) was −3.9% and the “Median percent change in Lipoprotein (a) from Day −29 baseline to Day 71” value (healthy subjects [1]; [10]) was −20.3%. The “Median percent change in Triglycerides from Day −29 baseline to Day 71” value (healthy subjects [1]; [10]) was 5.7%, the “Abdominal pain (TEAE), %” value (healthy subjects [3]; N = 24) was “(8.3) %” and the “Gastroenteritis viral (TEAE), %” value (healthy subjects [3]; N = 24) was “(0) %”. For the same molecule, the “Headache (TEAE), %” value (healthy subjects [3]; N = 24) was “(12.5) %”, the “Influenza (TEAE), %” value (healthy subjects [3]; N = 24) was “(8.3) %” and the “Influenza-like illness (TEAE), %” value (healthy subjects [3]; N = 24) was “(4.2) %”. The “Nasopharyngitis (TEAE), %” value (healthy subjects [3]; N = 24) was “(12.5) %”, the “Patients with any TEAEs, %” value (healthy subjects [3]; [7]) was “(50.0) %” and the “Patients with any TEAEs, %” value (healthy subjects [3]; listed as alirocumab alone) was 50.0%. The Tolerability (healthy subjects [3]; alone or on top of ezetimibe or fenofibrate, 150 mg Q4W for 3 administrations, healthy subjects) was “well tolerated”, the “AUClast, Geometric Mean” value ([4]; human) was “(306) [38.4] mg · day/l” and the “AUClast, Mean ± SD” value ([4]; human) was 326 ± 125 mg·days/L. The “CL/F, Mean ± SD” value ([4]; human) was 0.312 ± 0.124 L/day, the “Cmax, Mean ± SD” value ([4]; human) was 24300 ± 8610 ng/mL and the “MRT, Geometric Mean” value ([4]; human) was “(18.2) [20.7] day”. The “MRT, Mean ± SD” value ([4]; human) was 18.5 ± 3.84 days, the “t1/2z, Geometric Mean” value ([4]; human) was “(8.37) [35.7] day” and the “t1/2z, Mean ± SD” value ([4]; human) was 8.76 ± 3.12 days. For the same molecule, the “Cmax, Mean ± SD” value ([4]; human, sc, 150 mg) was 20400 ± 13500 ng/mL, the “AUC, Geometric Mean” value [4] was “(318) [58.9]^b mg · day/l” and the “AUC, Mean ± SD” value [4] was 357 ± 210 mg·days/L. For the same molecule, the “AUCExt (percentage of extrapolation of AUC), Geometric Mean” value [4] was “(22) [44.7] %”, the “AUCExt (percentage of extrapolation of AUC), Mean ± SD” value [4] was 25 ± 11% and the “tlast, Median” value [4] was 69.00 days. For the same molecule, the “Subjects tested ADA positive, %” value [5] was 16.7% and the “Subjects tested ADA positive, number” value [5] was “Four out of 24”.
